Source: publication PMC12583094 (2025)

Target: Myeloperoxidase (Homo sapiens, UniProt P05164)
Assay: SPR

Sequence of Myeloperoxidase (P05164 165-273): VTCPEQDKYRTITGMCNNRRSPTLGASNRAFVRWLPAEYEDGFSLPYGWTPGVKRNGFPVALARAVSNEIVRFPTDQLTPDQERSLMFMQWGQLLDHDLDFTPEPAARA

VPNHFNAP [VPNHFNAP peptide] was tested. Which Kd did it give?
Its Kd is 183 µM.
